Reference: PMC8100106, “Selection of a picomolar antibody that targets CXCR2-mediated neutrophil activation and alleviates EAE symptoms” (Nature Communications, 2021)

Columns and labels:
[1] = biological target: T1, pepN48, first 48 residues of the extracellular N-terminus of hCXCR2 (Homo sapiens, biotin on the N-terminus); experiment: SPR; biotinylated pepN48 loaded on streptavidin chip (Series S Sensor Chip SA), antibody flowed over, Biacore T200, HBS-EP+ buffer pH 7.4; settings: both partners purified
T1 construct: human CXC chemokine receptor 2 (CXCR2), first 48 residues; also called CXCR2 N-terminal peptide; source: synthetic peptide (Chinese Peptide)
T1 chain: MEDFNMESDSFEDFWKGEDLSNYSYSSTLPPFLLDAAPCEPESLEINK

[2] = biological target: T2, macaque CXCR2 (mcCXCR2-mCherry) on U2OS cells (Macaca mulatta (macaque species not …, UniProt A0A5F7ZQV3)); experiment: flow cytometry on cells; U2OS cells transiently overexpressing receptor-mCherry; 2 μg mL^−1 antibody in FACS buffer (0.5% BSA in PBS pH 7.4, 2 mM EDTA), 4 °C, 15 min; Alexa Fluor 488 anti-human IgG; settings: one partner purified
T2 construct: macaque CXCR2; also called macaque monkey CXCR2; source: U2OS, transiently overexpressed, on cells

[3] = biological target: T3, human CXCR2 (hCXCR2)-mCherry fusion protein on U2OS cells (human, UniProt P25025); experiment: immunostaining of cells or tissue; U2OS cells overexpressing receptor-mCherry, fixed with 4% paraformaldehyde; 2 μg mL^−1 antibody at 4 °C overnight; Alexa Fluor 488 anti-human IgG; confocal microscopy; settings: one partner purified
T3 construct: human CXC chemokine receptor 2 (CXCR2); Also used here as the target of the functional rows, whose cells (Tango CXCR2-bla U2OS; CHO with hCXCR2 and Gα16; U2OS overexpressing hCXCR2) carry other hCXCR2 constructs; also called CXC chemokine receptor 2; source: U2OS, transiently overexpressed, on cells

[4] = biological target: T4, pepN48, peptide of the first 48 residues of the extracellular N-terminus of hCXCR2 (Homo sapiens, biotin labeled on its N-terminus); experiment: SPR; biotinylated pepN48 loaded on a streptavidin Series S Sensor Chip SA; antibody flowed; Biacore T200; HBS-EP+ buffer pH 7.4; settings: both partners purified
T4 construct: human CXC chemokine receptor 2 (CXCR2), first 48 residues; a blank before the last K in the print was removed; also called CXCR2 N-terminal peptide; source: synthetic peptide (Chinese Peptide, Hangzhou)
T4 chain: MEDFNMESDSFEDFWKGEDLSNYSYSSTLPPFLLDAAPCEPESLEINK

[5] = biological target: T3, human CXCR2 (hCXCR2)-mCherry fusion …; experiment: cell-based or functional assay
[6] = biological target: T3, human CXCR2 (hCXCR2)-mCherry fusion …; experiment: flow cytometry on cells; cellular supernatants with scFv-Fc on U2OS cells with membrane-bound hCXCR2-mCherry; settings: partners not purified
[7] = biological target: T5, pepN9-19, 9-19 amino acid peptide of hCXCR2 (human); experiment: crystal structure; Fab mixed with pepN9-19 at a molar ratio of 1:3; hanging drop vapor diffusion, 18 °C; settings: both partners purified
T5 construct: human CXCR2 residues 9-19; source: synthetic peptide (Sangon Biotech) for crystallography
T5 chain: DSFEDFWKGED

T2 sequence (Q28519 whole entry): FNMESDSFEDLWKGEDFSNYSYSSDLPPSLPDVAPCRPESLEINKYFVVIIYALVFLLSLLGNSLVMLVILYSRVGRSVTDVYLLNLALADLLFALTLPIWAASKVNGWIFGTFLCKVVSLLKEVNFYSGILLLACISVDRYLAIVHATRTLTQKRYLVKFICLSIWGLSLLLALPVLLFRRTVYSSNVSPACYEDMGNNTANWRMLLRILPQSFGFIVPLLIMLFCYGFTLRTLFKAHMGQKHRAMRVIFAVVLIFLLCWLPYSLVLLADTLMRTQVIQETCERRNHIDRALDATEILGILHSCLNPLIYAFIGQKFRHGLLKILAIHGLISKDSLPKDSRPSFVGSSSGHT

B1: abN48-IgG1 (antibody, V domains shown)
VH: QVQLVQSGAEVKKPGSSVKVSCKASGGTLSSYAISWVRQAPGQGPEWMGWINPNSGGTNYAQKFQGRVTMTRDTSISTAYMELSRLRPDDTAVYYCASGYCSSTSCYDYWGQGTLVTVSS
VL: QAVLTQPSSLSASPGASVSLTCTLRSGINVGAYRIYWYQQKPGSPPQFLLRYKSDSDKQQGSGVPSRFSGSRDASANAGILLISGLRSEDEADYYCAIWHSSAWVFGGGTQLTVL
notes: VH of abN48 (from the scFv H8); complete constant domains of the IgG1 heavy chain; VL of abN48 on a complete light chain constant domain (lambda type is said of abN48-2-IgG1); IgG1; made from the scFv abN48 (H8); source: HEK293F, co-transfected heavy and light chain plasmids, purified (Protein A)
**Q.** For B1, which koff [1] is on record?
**A.** The koff was 0.00035 s⁻¹.

**Q.** And the kon [1]?
**A.** The kon was 350000 M⁻¹ s⁻¹.

B2: abN48-IgG1 (antibody, V domains shown)
VH: QVQLVQSGAEVKKPGSSVKVSCKASGGTLSSYAISWVRQAPGQGPEWMGWINPNSGGTNYAQKFQGRVTMTRDTSISTAYMELSRLRPDDTAVYYCASGYCSSTSCYDYWGQGTLVTVSS
VL: QAVLTQPSSLSASPGASVSLTCTLRSGINVGAYRIYWYQQKPGSPPQFLLRYKSDSDKQQGSGVPSRFSGSRDASANAGILLISGLRSEDEADYYCAIWHSSAWVFGGGTQLTVL
notes: VH of abN48; complete constant domains of human IgG1 heavy chain; whole light chain of abN48 (VL and CL); Full-length IgG1; source: HEK293F, co-transfected heavy and light chain plasmids, purified (HiTrap Protein A)
**Q.** Does B2 bind [2]?
**A.** Result: binds

**Q.** Does B2 bind [3]?
**A.** Result: binds

**Q.** And the Kd [4]?
**A.** Its Kd is 0.78 nM.

B3: abN48-2-IgG1 (antibody, V domains shown)
VH: QVQLVQSGAEVKKPGSSVKVSCKASGGTLSSYAISWVRQAPGQGPEWMGWINPNSGGTNYAQKFQGRVTMTRDTSISTAYMELSRLRPDDTAVYYCASGYCSRTRCYDYWGQGTLVTVSS
VL: QAVLTQPSSLSASPGASVSLTCTLRSGINVGAYRIYWYQQKPGSPPQFLLRYKSDSDKQQGSGVPSRFSGSRDASANAGILLISGLRSEDEADYYCAIWHSSAWVFGGGTQLTVL
notes: VH as the heavy chain of Dm1 with two changes in H-CDR3 (Kabat numbering); complete constant domains of the IgG1 heavy chain; as the light chain of Dm1 (lambda type); IgG1, lambda; also called H8-2
**Q.** Which results are given for B3?
**A.** koff [1]: 1.7e-05 s⁻¹; kon [1]: 940000 M⁻¹ s⁻¹

B4: abN48-2-IgG1 (antibody, V domains shown)
VH: QVQLVQSGAEVKKPGSSVKVSCKASGGTLSSYAISWVRQAPGQGPEWMGWINPNSGGTNYAQKFQGRVTMTRDTSISTAYMELSRLRPDDTAVYYCASGYCSRTRCYDYWGQGTLVTVSS
VL: QAVLTQPSSLSASPGASVSLTCTLRSGINVGAYRIYWYQQKPGSPPQFLLRYKSDSDKQQGSGVPSRFSGSRDASANAGILLISGLRSEDEADYYCAIWHSSAWVFGGGTQLTVL
notes: VH of abN48-2; equals the VH of m2 (PDB 6KVF) with Ser99 to Arg99 and Ser100A to Arg100A in H-CDR3 (Kabat numbering); complete constant domains of human IgG1 heavy chain; whole lambda light chain; as the light chain of m2; Full-length IgG1, lambda type; also called ab48-2-IgG1; AbN4-2-IgG1; source: HEK293T (results) or HEK293F (methods), transfected, purified (HiTrap Protein A)
**Q.** Does B4 bind [2]?
**A.** Result: binds

**Q.** And the “partial agonist effect on Ca^2+ influx at high concentration (10–1000 nM), FLIPR, apparent EC50” value [5]?
**A.** The value was 310 nM.

**Q.** What about the Kd [4] of the same binder?
**A.** Its Kd is 0.0072 nM.

B5: H8 (abN48) scFv antibody (scFv, V domains shown)
VH: QVQLVQSGAEVKKPGSSVKVSCKASGGTLSSYAISWVRQAPGQGPEWMGWINPNSGGTNYAQKFQGRVTMTRDTSISTAYMELSRLRPDDTAVYYCASGYCSSTSCYDYWGQGTLVTVSS
VL: QAVLTQPSSLSASPGASVSLTCTLRSGINVGAYRIYWYQQKPGSPPQFLLRYKSDSDKQQGSGVPSRFSGSRDASANAGILLISGLRSEDEADYYCAIWHSSAWVFGGGTQLTVL
notes: VH and VL as in the abN48 Fab of PDB 6KVF; Expressed as scFv-Fc with the entire Fc domain of human IgG1 (pFuse, InvivoGen pfuse-hg1fc2); also called scFv-Fc; source: HEK293F, transfected (pFuse vector); in cellular supernatant, and purified (HiTrap Protein A)
**Q.** Does B5 bind [6]?
**A.** Result: binds

**Q.** And the Kd [4]?
**A.** Its Kd is 2.6 nM.

B6: abN48 Fab (Fab, V domains shown)
VH: QVQLVQSGAEVKKPGSSVKVSCKASGGTLSSYAISWVRQAPGQGPEWMGWINPNSGGTNYAQKFQGRVTMTRDTSISTAYMELSRLRPDDTAVYYCASGYCSSTSCYDYWGQGTLVTVSS
VL: QAVLTQPSSLSASPGASVSLTCTLRSGINVGAYRIYWYQQKPGSPPQFLLRYKSDSDKQQGSGVPSRFSGSRDASANAGILLISGLRSEDEADYYCAIWHSSAWVFGGGTQLTVL
notes: Fab heavy chain of abN48; light chain of abN48; as the light chain of m2; source: Fab made following a similar protocol as for abN48-2 Fab (papain cleavage of the IgG1, purified)
**Q.** Does B6 bind [7]?
**A.** Result: binds

B7: abN48-2 Fab (Fab, V domains shown)
VH: QVQLVQSGAEVKKPGSSVKVSCKASGGTLSSYAISWVRQAPGQGPEWMGWINPNSGGTNYAQKFQGRVTMTRDTSISTAYMELSRLRPDDTAVYYCASGYCSRTRCYDYWGQGTLVTVSS
VL: QAVLTQPSSLSASPGASVSLTCTLRSGINVGAYRIYWYQQKPGSPPQFLLRYKSDSDKQQGSGVPSRFSGSRDASANAGILLISGLRSEDEADYYCAIWHSSAWVFGGGTQLTVL
notes: Fab heavy chain of abN48-2; VH equals that of m2 (PDB 6KVF) with Ser99 to Arg99 and Ser100A to Arg100A (Kabat numbering); lambda light chain; as the light chain of m3; source: papain cleavage of abN48-2-IgG1, purified (HiTrap lambda HP, Superdex200 increase)
**Q.** Does B7 bind [7]?
**A.** Result: binds
